According to patent US20210270842A1 (DYAX, published 2021):

What was measured:
[1] = biological target: T1, cleaved high molecular weight kininogen (HMWK) (human, UniProt P01042 19-380; P01042 390-644); experiment: sandwich ELISA with coated Fab; value = C, midpoint of the printed 4-P fit; 2-chain HMWK spiked into SBT assay buffer
T1 construct: also called cleaved HMWK; 2-chain HMWK
T1 sequence 1: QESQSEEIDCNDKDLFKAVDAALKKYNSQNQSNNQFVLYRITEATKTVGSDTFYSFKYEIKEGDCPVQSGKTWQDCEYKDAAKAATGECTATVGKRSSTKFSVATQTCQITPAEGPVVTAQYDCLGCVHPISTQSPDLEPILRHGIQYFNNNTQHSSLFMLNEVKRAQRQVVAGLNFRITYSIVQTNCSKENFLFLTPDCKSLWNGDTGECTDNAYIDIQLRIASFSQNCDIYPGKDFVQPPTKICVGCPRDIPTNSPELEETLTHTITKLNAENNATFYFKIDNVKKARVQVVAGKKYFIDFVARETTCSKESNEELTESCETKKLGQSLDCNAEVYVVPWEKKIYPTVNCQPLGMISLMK
T1 sequence 2: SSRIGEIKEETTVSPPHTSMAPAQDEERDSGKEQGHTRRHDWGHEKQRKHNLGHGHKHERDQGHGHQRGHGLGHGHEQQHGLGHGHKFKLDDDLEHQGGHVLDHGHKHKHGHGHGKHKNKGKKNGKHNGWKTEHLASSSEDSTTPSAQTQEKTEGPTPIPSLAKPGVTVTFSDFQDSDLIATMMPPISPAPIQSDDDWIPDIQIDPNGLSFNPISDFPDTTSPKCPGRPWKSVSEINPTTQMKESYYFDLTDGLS
From the text: (§1) Purified cleaved HMWK was spiked into SBT assay buffer (open circles), SBT assay buffer and analyzed in the presence of 10% plasma (squares), or HMWK-deficient plasma and analyzed in the presence of 10% plasma (triangles). Purified cleaved HMWK was also spiked into assay buffer and analyzed in the presence of 2.5% plasma (diamonds) or HMWK deficient plasma and analyzed in the presence of 2.5% plasma (closed circles). The y-axis presents the ELISA signal in absorbance units, and the x-axis presents the concentration of kininogen in μg/mL.
(§2) The following day, the plate was washed and then blocked with 2% BSA (Protease/IgG free) in PBS buffer. Following a wash, samples containing cleaved HMWK in 0.1% BSA buffer in PBS with 0.05% Tween-20 (2-Chain HMWK assay buffer). Purified protein standards (e.g., 2-chain HMWK, intact HMWK or LMWK) were spiked into HMWK-deficient plasma and diluted 1:320 in 2-chain HMWK assay buffer. Following plate washing with PBST, a mixture of 2 mouse monoclonal antibodies (11H05 and 13B12) at 1 μg/mL in 2-chain HMWK assay buffer were added for 1 hour at room temperature. […] Signal was detected by the addition of 3,3′,5,5′-tetramethylbenzidine (TMB), an HRP substrate. […] Hydrolysis of a TMB substrate was detected using a microplate reader at 450 nm-630 nm (FIG. 3). […] Using these immunoassay conditions, specifically binding to cleaved HMWK was detected.

[2] = biological target: T1, cleaved high molecular weight kininogen …; experiment: sandwich ELISA with coated Fab; value = C, midpoint of the printed 4-P fit; 2-chain HMWK spiked into SBT buffer, analysed in 10% plasma
From the text: as §1, §2

[3] = biological target: T1, cleaved high molecular weight kininogen …; experiment: sandwich ELISA with coated Fab; value = C, midpoint of the printed 4-P fit; 2-chain HMWK spiked into HMWK-deficient plasma, analysed in 2.5% plasma
From the text: as §1, §2

[4] = biological target: T1, cleaved high molecular weight kininogen …; experiment: sandwich ELISA: Fab coated on 96-well plate, kininogen titrated, detection 11H05 + 13B12 and goat anti-mouse-HRP; value = C, midpoint of the printed 4-P fit; 2-chain HMWK spiked into SBT assay buffer
From the text: Purified cleaved HMWK was spiked into SBT assay buffer (circles) or HMWK-deficient plasma (squares). Purified intact HMWK was spiked into SBT assay buffer (triangles). Purified LMWK was spiked into SBT assay buffer (diamonds). The y-axis presents the ELISA signal in absorbance units, and the x-axis presents the concentration of kininogen in μg/mL.
as §2, with “temperature. Unbound detection antibodies were washed and a 1:2000 dilution of goat anti-mouse secondary antibody conjugated to horseradish peroxidase (HRP) was added.” for “temperature.”

[5] = biological target: T1, cleaved high molecular weight kininogen …; experiment: ELISA on coated M004-B04, 2-chain HMWK titrated after preincubation of the plate with competitor HKH20 peptide at 250 µg/mL; value = C of the printed 4-P fit; squares, right-shifted curve (the callout box on the graph names this curve GCP28: see recheck)
Experimental: Following plate washing with PBST, a mixture of 2 mouse monoclonal antibodies (11H05 and 13B12) at 1 μg/mL in 2-chain HMWK assay buffer were added for 1 hour at room temperature. Unbound detection antibodies were washed and a 1:2000 dilution of goat anti-mouse secondary antibody conjugated to horseradish peroxidase (HRP) was added. The assay containing the secondary antibody was incubated for 1 hour at room temperature, and unbound secondary antibody was removed by washing with 2-chain HMWK assay buffer. Signal was detected by the addition of 3,3′,5,5′-tetramethylbenzidine (TMB), an HRP substrate. The reaction was stopped with phosphoric acid. Hydrolysis of a TMB substrate was detected using a microplate reader at 450 nm-630 nm (FIG. 3). […] Using these immunoassay conditions, specifically binding to cleaved HMWK was detected.
To perform the assay, the kininogen peptides were diluted to 250 μg/mL and allowed to preincubate on assay plate. Then, purified 2-chain HMWK in deficient human plasma was diluted 160 and then added to plate.

B1: 559B-M0004-B04 (Fab, V domains shown)
VH: EVQLLESGGGLVQPGGSLRLSCAASGFTFSFYVMVWVRQAPGKGLEWVSGISPSGGNTAYADSVKGRFTISRDNSKNTLYLQMNSLRAEDTAVYYCARKLFYYDDTKGYFDFWGQGTLVTVSS
VL: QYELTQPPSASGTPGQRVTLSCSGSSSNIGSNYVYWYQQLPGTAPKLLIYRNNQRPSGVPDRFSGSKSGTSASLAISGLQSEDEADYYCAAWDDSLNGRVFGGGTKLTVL
notes: also called M004-B04
Question: What does the source list for B1?
Answer: EC50 [1]: 226 µg/mL; EC50 [2]: 184 µg/mL; EC50 [3]: 184 µg/mL; EC50 [4]: 235 µg/mL; EC50 [5]: 0.0375 µg/mL
